{
  "source": "paper PMC9977294",
  "about": "“A parasitic fungus employs mutated eIF4A to survive on rocaglate-synthesizing Aglaia plants”",
  "key": {"eIF4A1 Phe163His": {"target": "eIF4A1 Phe163His (Homo sapiens, UniProt P60842 1-406, F163H)", "sequence (P60842 whole entry F163H)": "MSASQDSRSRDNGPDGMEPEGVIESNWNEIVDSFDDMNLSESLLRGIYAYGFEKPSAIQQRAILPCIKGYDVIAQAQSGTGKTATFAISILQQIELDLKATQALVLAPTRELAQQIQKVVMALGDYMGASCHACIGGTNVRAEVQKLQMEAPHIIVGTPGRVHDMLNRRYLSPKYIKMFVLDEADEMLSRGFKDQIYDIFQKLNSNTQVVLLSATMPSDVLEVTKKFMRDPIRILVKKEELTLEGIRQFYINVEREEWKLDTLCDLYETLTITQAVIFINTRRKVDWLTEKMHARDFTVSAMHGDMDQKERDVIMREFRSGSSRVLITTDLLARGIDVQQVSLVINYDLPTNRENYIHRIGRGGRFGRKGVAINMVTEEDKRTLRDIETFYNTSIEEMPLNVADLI", "assay": "fluorescence polarization; 1 mM AMP-PNP, DMSO; 20 mM HEPES-NaOH pH 7.5, 150 mM NaCl, 1 mM MgCl2, 1 mM DTT, 5% glycerol, 1% DMSO, 10 nM FAM-RNA, 0-25 uM protein (source data up to 50), 1 mM AMP-PNP or 1 mM ADP + 1 mM Na2HPO4, room temperature 30 min; Hill fit, n = 3", "conditions": "protein: recombinant; tags: His; single strand"}, "eIF4A1 Phe163Gly": {"target": "eIF4A1 Phe163Gly (Homo sapiens, UniProt P60842 1-406, F163G)", "sequence (P60842 whole entry F163G)": "as the sequence (P60842 whole entry F163H) above, with H163G counted along it", "assay": "fluorescence polarization; 1 mM AMP-PNP, DMSO; 20 mM HEPES-NaOH pH 7.5, 150 mM NaCl, 1 mM MgCl2, 1 mM DTT, 5% glycerol, 1% DMSO, 10 nM FAM-RNA, 0-25 uM protein (source data up to 50), 1 mM AMP-PNP or 1 mM ADP + 1 mM Na2HPO4, room temperature 30 min; Hill fit, n = 3", "conditions": "protein: recombinant; tags: His; single strand"}},
  "data": [
    {"binder": "AGAGAGAGAGAGAGAGAGAG (ssRNA)", "note": "[[AG]10 polypurine RNA]", "values": [
      {"measurement": "Kd", "setting": "eIF4A1 Phe163His", "result": "16 ± 2.7", "unit": "µM"},
      {"measurement": "Kd", "setting": "eIF4A1 Phe163Gly", "result": "21 ± 6.7", "unit": "µM"}
    ]}
  ]
}
